# Test results as given in publication PMC10675840, “Structure-function analysis of ceTIR-1/hSARM1 explains the lack of Wallerian axonal degeneration in C. elegans” (Cell reports, 2023).
# T1: ceTIR-1 (Caenorhabditis elegans, UniProt Q86DA5)
# T1 construct: gene tir-1; near-intact ARM-SAM-SAM-TIR, residues 162-872 (HMD...QQR), N-terminal 6xHis + TEV site, HEK293F expression, mostly 9-mer ring, partly dissociated
# T1 sequence (Q86DA5 216-926): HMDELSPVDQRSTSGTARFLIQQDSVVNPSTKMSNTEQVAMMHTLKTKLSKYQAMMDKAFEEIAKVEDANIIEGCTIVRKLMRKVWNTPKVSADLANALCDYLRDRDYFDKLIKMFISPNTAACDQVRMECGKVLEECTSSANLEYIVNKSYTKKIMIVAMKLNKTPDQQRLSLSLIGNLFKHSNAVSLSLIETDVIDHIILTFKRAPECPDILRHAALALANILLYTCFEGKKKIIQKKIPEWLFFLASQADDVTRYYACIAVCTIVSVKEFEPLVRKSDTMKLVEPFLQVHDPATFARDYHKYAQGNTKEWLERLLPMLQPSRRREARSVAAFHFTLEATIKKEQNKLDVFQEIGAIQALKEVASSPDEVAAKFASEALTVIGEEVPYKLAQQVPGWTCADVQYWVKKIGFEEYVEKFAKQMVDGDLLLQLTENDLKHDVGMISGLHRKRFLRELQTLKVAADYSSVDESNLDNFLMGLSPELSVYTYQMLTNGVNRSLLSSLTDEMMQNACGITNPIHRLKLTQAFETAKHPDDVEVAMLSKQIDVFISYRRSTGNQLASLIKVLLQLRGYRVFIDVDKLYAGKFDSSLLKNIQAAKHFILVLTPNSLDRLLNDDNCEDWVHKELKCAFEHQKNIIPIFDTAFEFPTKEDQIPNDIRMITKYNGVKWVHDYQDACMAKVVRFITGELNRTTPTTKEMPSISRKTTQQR
# T2: hSARM1 ARM and SAM domains (residues 26-562), the human part of CHIMERA (human, UniProt Q6SZW1 26-562)
# T2 construct: human SARM1 ARM and SAM domains, residues 26-562 (26ERL...DTP562); Stood joined on one chain with m8 (together they are CHIMERA); written apart only for the contact of the human ARM with the C. elegans TIR in the structure; also called human ARM and SAM domains; source: HEK293F, transfected, purified, as part of the CHIMERA chain
# T2 sequence (looked up): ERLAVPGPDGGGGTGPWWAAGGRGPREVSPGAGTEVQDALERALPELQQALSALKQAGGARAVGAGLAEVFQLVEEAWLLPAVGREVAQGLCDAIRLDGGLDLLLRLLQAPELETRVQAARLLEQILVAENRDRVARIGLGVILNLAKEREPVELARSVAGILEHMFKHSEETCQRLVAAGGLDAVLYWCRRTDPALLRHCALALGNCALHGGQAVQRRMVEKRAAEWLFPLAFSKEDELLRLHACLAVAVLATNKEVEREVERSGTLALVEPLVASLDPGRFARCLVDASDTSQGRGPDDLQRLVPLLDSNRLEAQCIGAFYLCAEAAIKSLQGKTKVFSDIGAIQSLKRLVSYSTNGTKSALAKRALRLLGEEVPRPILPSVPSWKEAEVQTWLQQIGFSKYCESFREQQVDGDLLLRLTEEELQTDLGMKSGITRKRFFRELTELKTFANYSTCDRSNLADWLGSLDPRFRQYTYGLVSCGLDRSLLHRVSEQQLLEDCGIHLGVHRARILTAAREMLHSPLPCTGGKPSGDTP
# Key:
# [1] = biological target: T1, ceTIR-1; experiment: HPLC NAD+ consumption, dose response; assay type: biochemical
# Description: HPLC NAD+ consumption, dose response on ceTIR-1 | Nicotinamide (NAM) inhibits ceTIR-1 NADase activity
# [2] = biological target: the molecule itself; experiment: SEC; gel filtration of Ni-NTA purified hSARM1 and ceTIR-1, fractions read by anti-FLAG WB; Superdex 200 Increase 10/300, 25 mM phosphate pH 8.5, 120 mM NaCl, 2.5% glycerol, 1 mM DTT
# [3] = substrate: NC(=O)c1ccc[n+]([C@@H]2O[C@H](COP(=O)(O)OP(=O)(O)OC[C@H]3O[C@@H](n4cnc5c(N)ncnc54)[C@H](O)[C@@H]3O)[C@@H](O)[C@H]2O)c1; experiment: HPLC NAD+ consumption, Michaelis-Menten fit; assay type: biochemical, Caenorhabditis elegans; settings: […] min, […] enzyme, pH […], unit appears as mM, a character error for µM (b50 gives about […] for hSARM1 and […] higher for ceTIR-1)
# [4] = biological target: T2, hSARM1 ARM and SAM domains (residues …); experiment: cryo-EM structure; purified CHIMERA supplemented with 5 mM NAD+; Titan Krios; 136,346 particles, C8 symmetry imposed; settings: both partners purified
# [5] = biological target: the molecule itself; experiment: cross-linking; glutaraldehyde cross-linking of ceTIR-1^TIR and ceTIR-1^(TIR L729H)
# [6] = biological target: the molecule itself; experiment: cryo-EM structure; purified CHIMERA supplemented with 5 mM NAD+; Titan Krios; 136,346 particles, C8 symmetry imposed
molecule,measurement,setting,value
NC(=O)c1cccnc1 [NAM],IC50,[1],910 µM
"hSARM1 (near-intact, residues 26-724) (enzyme, human, UniProt Q6SZW1 26-724, looked up, human SARM1 (sterile alpha and TIR motif containing 1), residues 26-724 (26ERL...GPT724); A TEV site follows the His tag; no cleavage is described; also called human SARM1; source: HEK293F, transfected, purified (Ni-chelate, Superdex 200 Increase SEC)) ERLAVPGPDGGGGTGPWWAAGGRGPREVSPGAGTEVQDALERALPELQQALSALKQAGGARAVGAGLAEVFQLVEEAWLLPAVGREVAQGLCDAIRLDGGLDLLLRLLQAPELETRVQAARLLEQILVAENRDRVARIGLGVILNLAKEREPVELARSVAGILEHMFKHSEETCQRLVAAGGLDAVLYWCRRTDPALLRHCALALGNCALHGGQAVQRRMVEKRAAEWLFPLAFSKEDELLRLHACLAVAVLATNKEVEREVERSGTLALVEPLVASLDPGRFARCLVDASDTSQGRGPDDLQRLVPLLDSNRLEAQCIGAFYLCAEAAIKSLQGKTKVFSDIGAIQSLKRLVSYSTNGTKSALAKRALRLLGEEVPRPILPSVPSWKEAEVQTWLQQIGFSKYCESFREQQVDGDLLLRLTEEELQTDLGMKSGITRKRFFRELTELKTFANYSTCDRSNLADWLGSLDPRFRQYTYGLVSCGLDRSLLHRVSEQQLLEDCGIHLGVHRARILTAAREMLHSPLPCTGGKPSGDTPDVFISYRRNSGSQLASLLKVHLQLHGFSVFIDVEKLEAGKFEDKLIQSVMGARNFVLVLSPGALDKCMQDHDCKDWVHKEIVTALSCGKNIVPIIDGFEWPEPQVLPEDMQAVLTFNGIKWSHEYQEATIEKIIRFLQGRSSRDSSAGSDTSLEGAAPMGPT",binding result,[2],binds
"ceTIR-1 (Caenorhabditis elegans) (protein, near-intact ARM-SAM-SAM-TIR, residues 162-872 (HMD...QQR), N-terminal 6xHis + TEV site, HEK293F expression, mostly 9-mer ring, partly dissociated) HMDELSPVDQRSTSGTARFLIQQDSVVNPSTKMSNTEQVAMMHTLKTKLSKYQAMMDKAFEEIAKVEDANIIEGCTIVRKLMRKVWNTPKVSADLANALCDYLRDRDYFDKLIKMFISPNTAACDQVRMECGKVLEECTSSANLEYIVNKSYTKKIMIVAMKLNKTPDQQRLSLSLIGNLFKHSNAVSLSLIETDVIDHIILTFKRAPECPDILRHAALALANILLYTCFEGKKKIIQKKIPEWLFFLASQADDVTRYYACIAVCTIVSVKEFEPLVRKSDTMKLVEPFLQVHDPATFARDYHKYAQGNTKEWLERLLPMLQPSRRREARSVAAFHFTLEATIKKEQNKLDVFQEIGAIQALKEVASSPDEVAAKFASEALTVIGEEVPYKLAQQVPGWTCADVQYWVKKIGFEEYVEKFAKQMVDGDLLLQLTENDLKHDVGMISGLHRKRFLRELQTLKVAADYSSVDESNLDNFLMGLSPELSVYTYQMLTNGVNRSLLSSLTDEMMQNACGITNPIHRLKLTQAFETAKHPDDVEVAMLSKQIDVFISYRRSTGNQLASLIKVLLQLRGYRVFIDVDKLYAGKFDSSLLKNIQAAKHFILVLTPNSLDRLLNDDNCEDWVHKELKCAFEHQKNIIPIFDTAFEFPTKEDQIPNDIRMITKYNGVKWVHDYQDACMAKVVRFITGELNRTTPTTKEMPSISRKTTQQR",Km,[3],0.25 mM
"ceTIR-1 TIR domain (residues 709-872), the C. elegans part of CHIMERA (domain or fragment, UniProt Q86DA5-2 709-872, looked up, ceTIR-1 TIR domain, residues 709-872 (709DVF...QQR872); Stood joined on one chain with m7 (together they are CHIMERA); also called C. elegans TIR; source: HEK293F, transfected, purified, as part of the CHIMERA chain) DVFISYRRSTGNQLASLIKVLLQLRGYRVFIDVDKLYAGKFDSSLLKNIQAAKHFILVLTPNSLDRLLNDDNCEDWVHKELKCAFEHQKNIIPIFDTAFEFPTKEDQIPNDIRMITKYNGVKWVHDYQDACMAKVVRFITGELNRTTPTTKEMPSISRKTTQQR",binding result,[4],binds
"ceTIR-1^TIR (residues 703-872) (domain or fragment, C. elegans, UniProt Q86DA5-2 703-872, looked up, ceTIR-1 TIR domain, residues 703-872 (703MLS...QQR872); Dimeric by glutaraldehyde cross-linking; also called isolated TIR domain of ceTIR-1; source: E. coli T7 Express, purified (HisTrap, TEV, second HisTrap, Superdex SEC); not shown: His tag, N-terminal, cleaved) MLSKQIDVFISYRRSTGNQLASLIKVLLQLRGYRVFIDVDKLYAGKFDSSLLKNIQAAKHFILVLTPNSLDRLLNDDNCEDWVHKELKCAFEHQKNIIPIFDTAFEFPTKEDQIPNDIRMITKYNGVKWVHDYQDACMAKVVRFITGELNRTTPTTKEMPSISRKTTQQR",stoichiometry N,[5],2
"CHIMERA (hSARM1 26-562 fused to ceTIR-1 709-872) (enzyme, human | C. elegans, UniProt Q6SZW1 26-562, looked up, human SARM1 ARM and SAM domains, residues 26-562 (26ERL...DTP562); ceTIR-1 TIR domain, residues 709-872 (709DVF...QQR872); Octamer by cryo-EM, sample supplemented with 5 mM NAD+; also called hARM-SAM-ceTIR CHIMERA; Chimera construct; source: HEK293F, transfected, purified (Ni-chelate, Superdex 200 Increase SEC)) ERLAVPGPDGGGGTGPWWAAGGRGPREVSPGAGTEVQDALERALPELQQALSALKQAGGARAVGAGLAEVFQLVEEAWLLPAVGREVAQGLCDAIRLDGGLDLLLRLLQAPELETRVQAARLLEQILVAENRDRVARIGLGVILNLAKEREPVELARSVAGILEHMFKHSEETCQRLVAAGGLDAVLYWCRRTDPALLRHCALALGNCALHGGQAVQRRMVEKRAAEWLFPLAFSKEDELLRLHACLAVAVLATNKEVEREVERSGTLALVEPLVASLDPGRFARCLVDASDTSQGRGPDDLQRLVPLLDSNRLEAQCIGAFYLCAEAAIKSLQGKTKVFSDIGAIQSLKRLVSYSTNGTKSALAKRALRLLGEEVPRPILPSVPSWKEAEVQTWLQQIGFSKYCESFREQQVDGDLLLRLTEEELQTDLGMKSGITRKRFFRELTELKTFANYSTCDRSNLADWLGSLDPRFRQYTYGLVSCGLDRSLLHRVSEQQLLEDCGIHLGVHRARILTAAREMLHSPLPCTGGKPSGDTPDVFISYRRSTGNQLASLIKVLLQLRGYRVFIDVDKLYAGKFDSSLLKNIQAAKHFILVLTPNSLDRLLNDDNCEDWVHKELKCAFEHQKNIIPIFDTAFEFPTKEDQIPNDIRMITKYNGVKWVHDYQDACMAKVVRFITGELNRTTPTTKEMPSISRKTTQQR",stoichiometry N,[6],8
